Results published in PMC5467213, “Architecture of the RNA polymerase II-Paf1C-TFIIS transcription elongation complex” (Nature Communications, 2017).

What was measured:
[1] = target: T1, Ctr9 (full length, C-terminal hexahistidine tag) (S. cerevisiae, UniProt P89105 1-1077); experiment: co-purification after coexpression (Ni-NTA, cation exchange, SEC); subunits coexpressed in E. coli from three vectors, cells colysed; Ni-NTA (hexahistidine tag on Ctr9), HiTrap SP cation exchange, Superose 6 size exclusion; SDS-PAGE, subunits confirmed by mass spectrometry; conditions: partners not purified
T1 construct: Ctr9, S. cerevisiae, full length, amplified from genomic DNA, in pET24b; source: E. coli BL21 CodonPlus(DE3)RIL, coexpressed with the other subunits; in lysate and purified as part of Paf1C; not shown: His6, C-terminal, kept
T1 sequence (looked up): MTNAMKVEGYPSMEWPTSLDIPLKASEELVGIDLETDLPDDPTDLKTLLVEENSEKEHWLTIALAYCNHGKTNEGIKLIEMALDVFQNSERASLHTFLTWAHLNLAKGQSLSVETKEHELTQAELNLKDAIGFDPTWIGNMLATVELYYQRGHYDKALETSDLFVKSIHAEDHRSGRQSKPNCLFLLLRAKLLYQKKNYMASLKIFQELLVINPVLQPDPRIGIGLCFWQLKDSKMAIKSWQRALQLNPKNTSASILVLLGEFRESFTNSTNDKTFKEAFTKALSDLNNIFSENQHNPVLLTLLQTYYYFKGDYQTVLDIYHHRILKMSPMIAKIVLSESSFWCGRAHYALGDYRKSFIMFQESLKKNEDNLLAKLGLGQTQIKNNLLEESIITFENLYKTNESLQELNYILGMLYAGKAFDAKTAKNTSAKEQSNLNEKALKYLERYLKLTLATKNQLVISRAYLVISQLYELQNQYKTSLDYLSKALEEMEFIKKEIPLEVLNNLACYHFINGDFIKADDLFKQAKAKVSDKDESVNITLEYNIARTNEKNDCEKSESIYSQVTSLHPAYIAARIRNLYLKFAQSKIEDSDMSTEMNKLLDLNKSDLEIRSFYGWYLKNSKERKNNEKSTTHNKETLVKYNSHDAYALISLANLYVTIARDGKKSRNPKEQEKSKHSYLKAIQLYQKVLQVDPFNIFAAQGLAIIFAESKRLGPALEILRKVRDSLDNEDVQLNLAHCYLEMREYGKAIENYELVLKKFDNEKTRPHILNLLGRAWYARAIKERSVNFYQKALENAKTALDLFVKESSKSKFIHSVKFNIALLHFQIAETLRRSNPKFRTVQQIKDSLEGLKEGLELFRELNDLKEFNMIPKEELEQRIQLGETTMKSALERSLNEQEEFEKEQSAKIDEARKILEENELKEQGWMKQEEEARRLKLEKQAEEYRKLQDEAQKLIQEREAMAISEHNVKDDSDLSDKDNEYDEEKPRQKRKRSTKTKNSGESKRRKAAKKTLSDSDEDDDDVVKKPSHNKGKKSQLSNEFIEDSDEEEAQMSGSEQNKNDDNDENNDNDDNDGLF

Ctr9-ΔC913 = target: T2, Ctr9-ΔC913 (S. cerevisiae, UniProt P89105 1-913); experiment: cross-linking; Pol II-Paf1C-TFIIS EC after SEC, 425 μg/ml, 0.5 mM BS3, 30 min, 30 °C; trypsin, Orbitrap Fusion LC-MS/MS, pLink, FDR 1%; conditions: both partners purified
T2 construct: Ctr9, S. cerevisiae, variant lacking 164 amino acids at its C terminus (Ctr9-ΔC913); also called Ctr9 (in the Pol II-Paf1C-TFIIS EC); source: E. coli BL21 CodonPlus(DE3)RIL, coexpressed with the other subunits; in lysate and purified as part of Paf1C-Ctr9-ΔC913
T2 sequence (looked up): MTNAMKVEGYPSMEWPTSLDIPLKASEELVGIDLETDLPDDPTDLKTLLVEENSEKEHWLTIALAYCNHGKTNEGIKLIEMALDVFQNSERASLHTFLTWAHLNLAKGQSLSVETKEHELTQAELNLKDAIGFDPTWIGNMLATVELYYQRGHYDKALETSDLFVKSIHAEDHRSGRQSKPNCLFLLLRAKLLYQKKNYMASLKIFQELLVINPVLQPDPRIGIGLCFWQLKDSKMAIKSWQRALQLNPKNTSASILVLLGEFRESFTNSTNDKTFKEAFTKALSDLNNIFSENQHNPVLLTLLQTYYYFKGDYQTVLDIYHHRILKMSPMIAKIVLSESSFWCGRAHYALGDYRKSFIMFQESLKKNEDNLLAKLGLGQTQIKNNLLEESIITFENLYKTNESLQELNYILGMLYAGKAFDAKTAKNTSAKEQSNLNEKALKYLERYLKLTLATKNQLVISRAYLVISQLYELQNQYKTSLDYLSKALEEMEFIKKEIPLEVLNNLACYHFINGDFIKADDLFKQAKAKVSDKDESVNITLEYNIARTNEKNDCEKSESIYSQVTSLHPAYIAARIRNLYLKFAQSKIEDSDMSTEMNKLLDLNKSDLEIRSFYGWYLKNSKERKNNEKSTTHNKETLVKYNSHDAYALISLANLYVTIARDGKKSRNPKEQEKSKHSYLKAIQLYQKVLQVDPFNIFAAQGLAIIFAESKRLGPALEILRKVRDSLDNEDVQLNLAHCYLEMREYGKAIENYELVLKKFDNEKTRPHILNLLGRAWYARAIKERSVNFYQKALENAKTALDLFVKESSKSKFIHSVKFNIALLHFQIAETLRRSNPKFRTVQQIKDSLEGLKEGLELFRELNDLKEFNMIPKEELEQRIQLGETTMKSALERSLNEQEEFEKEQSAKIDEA

Rtf1 = target: T3, Rtf1 (S. cerevisiae, UniProt P53064 1-558); experiment: as above; conditions: both partners purified
T3 construct: Rtf1, S. cerevisiae, full length, amplified from genomic DNA; source: E. coli BL21 CodonPlus(DE3)RIL, coexpressed with Cdc73; in lysate and purified as part of Paf1C
T3 sequence (P53064 whole entry): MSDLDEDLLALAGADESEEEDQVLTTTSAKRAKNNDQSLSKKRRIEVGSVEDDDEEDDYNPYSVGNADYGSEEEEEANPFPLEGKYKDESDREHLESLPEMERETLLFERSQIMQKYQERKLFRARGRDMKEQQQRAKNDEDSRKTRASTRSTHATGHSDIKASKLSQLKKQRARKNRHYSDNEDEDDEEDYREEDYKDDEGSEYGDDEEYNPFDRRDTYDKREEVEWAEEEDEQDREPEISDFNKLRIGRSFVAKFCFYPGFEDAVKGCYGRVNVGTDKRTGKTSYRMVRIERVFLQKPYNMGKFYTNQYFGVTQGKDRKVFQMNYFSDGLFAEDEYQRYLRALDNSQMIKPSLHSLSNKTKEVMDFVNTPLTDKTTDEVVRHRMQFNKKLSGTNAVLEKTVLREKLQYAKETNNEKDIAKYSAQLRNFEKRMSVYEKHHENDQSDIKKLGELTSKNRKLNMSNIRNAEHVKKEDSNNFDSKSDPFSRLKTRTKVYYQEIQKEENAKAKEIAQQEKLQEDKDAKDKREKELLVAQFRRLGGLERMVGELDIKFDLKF

Leo1 = target: T4, Leo1 (S. cerevisiae, UniProt P38439 1-464); experiment: as above; conditions: both partners purified
T4 construct: Leo1, S. cerevisiae, open reading frame chemically synthesized (codon-optimised), in pCDFDuet-1; source: E. coli BL21 CodonPlus(DE3)RIL, coexpressed with the other subunits; in lysate and purified as part of Paf1C
T4 sequence (looked up): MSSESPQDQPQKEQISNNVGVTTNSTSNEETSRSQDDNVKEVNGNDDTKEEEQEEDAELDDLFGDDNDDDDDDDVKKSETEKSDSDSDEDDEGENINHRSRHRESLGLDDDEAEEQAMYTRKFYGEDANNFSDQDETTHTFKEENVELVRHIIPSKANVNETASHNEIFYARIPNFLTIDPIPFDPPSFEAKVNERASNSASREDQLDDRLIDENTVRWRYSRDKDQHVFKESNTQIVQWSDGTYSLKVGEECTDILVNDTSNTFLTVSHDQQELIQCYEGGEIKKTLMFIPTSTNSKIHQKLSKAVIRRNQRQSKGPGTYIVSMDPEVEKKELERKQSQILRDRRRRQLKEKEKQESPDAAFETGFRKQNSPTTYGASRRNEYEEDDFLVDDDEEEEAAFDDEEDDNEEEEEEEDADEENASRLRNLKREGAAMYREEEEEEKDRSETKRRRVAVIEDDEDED

Rpb2 (Pol II subunit) = target: T5, Rpb2 (Pol II subunit) (yeast, UniProt P08518 1-1224); experiment: as above; conditions: both partners purified
T5 construct: Rpb2, subunit of yeast Pol II; source: part of purified Pol II
T5 sequence (P08518 whole entry): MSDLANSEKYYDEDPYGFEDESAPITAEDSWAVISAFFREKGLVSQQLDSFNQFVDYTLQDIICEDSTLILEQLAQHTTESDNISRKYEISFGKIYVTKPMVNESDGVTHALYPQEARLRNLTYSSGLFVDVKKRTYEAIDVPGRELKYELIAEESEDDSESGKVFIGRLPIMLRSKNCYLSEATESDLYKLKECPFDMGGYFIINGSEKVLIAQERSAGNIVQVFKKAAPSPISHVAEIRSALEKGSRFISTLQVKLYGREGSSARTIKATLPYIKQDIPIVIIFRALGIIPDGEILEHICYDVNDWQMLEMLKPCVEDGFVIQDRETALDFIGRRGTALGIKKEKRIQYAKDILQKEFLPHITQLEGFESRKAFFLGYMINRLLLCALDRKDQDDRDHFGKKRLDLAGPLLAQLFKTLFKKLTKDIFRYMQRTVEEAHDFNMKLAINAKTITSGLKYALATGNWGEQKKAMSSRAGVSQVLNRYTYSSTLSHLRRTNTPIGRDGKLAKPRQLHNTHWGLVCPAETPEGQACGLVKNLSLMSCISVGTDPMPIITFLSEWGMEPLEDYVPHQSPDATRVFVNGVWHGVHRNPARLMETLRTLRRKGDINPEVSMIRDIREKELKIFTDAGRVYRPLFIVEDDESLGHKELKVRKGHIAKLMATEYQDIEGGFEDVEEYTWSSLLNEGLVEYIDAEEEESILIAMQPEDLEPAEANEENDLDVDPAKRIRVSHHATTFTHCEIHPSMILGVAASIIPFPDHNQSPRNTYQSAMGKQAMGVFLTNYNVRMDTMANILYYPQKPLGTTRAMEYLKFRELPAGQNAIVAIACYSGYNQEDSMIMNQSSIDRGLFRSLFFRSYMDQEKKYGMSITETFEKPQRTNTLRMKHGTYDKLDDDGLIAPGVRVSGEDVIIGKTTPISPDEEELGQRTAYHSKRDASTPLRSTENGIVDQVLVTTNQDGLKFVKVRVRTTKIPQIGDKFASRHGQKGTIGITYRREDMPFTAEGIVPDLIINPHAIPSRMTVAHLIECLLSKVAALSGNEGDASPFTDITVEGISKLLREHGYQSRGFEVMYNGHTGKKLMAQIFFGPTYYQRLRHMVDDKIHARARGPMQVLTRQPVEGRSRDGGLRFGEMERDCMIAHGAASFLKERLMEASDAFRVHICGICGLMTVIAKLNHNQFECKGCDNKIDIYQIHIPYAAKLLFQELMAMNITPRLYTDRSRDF

Measured: binding result

B1: Paf1 (natural protein, S. cerevisiae, UniProt P38351 1-445, looked up)
chain: MSKKQEYIAPIKYQNSLPVPQLPPKLLVYPESPETNADSSQLINSLYIKTNVTNLIQQDEDLGMPVDLMKFPGLLNKLDSKLLYGFDNVKLDKDDRILLRDPRIDRLTKTDISKVTFLRRTEYVSNTIAAHDNTSLKRKRRLDDGDSDDENLDVNHIISRVEGTFNKTDKWQHPVKKGVKMVKKWDLLPDTASMDQVYFILKFMGSASLDTKEKKSLNTGIFRPVELEEDEWISMYATDHKDSAILENELEKGMDEMDDDSHEGKIYKFKRIRDYDMKQVAEKPMTELAIRLNDKDGIAYYKPLRSKIELRRRRVNDIIKPLVKEHDIDQLNVTLRNPSTKEANIRDKLRMKFDPINFATVDEEDDEDEEQPEDVKKESEGDSKTEGSEQEGENEKDEEIKQEKENEQDEENKQDENRAADTPETSDAVHTEQKPEEEKETLQEE
notes: Paf1, S. cerevisiae, open reading frame chemically synthesized (codon-optimised), in pCDFDuet-1; also called polymerase-associated factor 1; source: E. coli BL21 CodonPlus(DE3)RIL, coexpressed with the other subunits; in lysate and purified as part of Paf1C
binds: all assays above
